Data from patent publication US20240287172A1 (SCIRHOM, published 2024).

Legend:
miR2-FL-WT-FLAG = target: T1, miR2-FL-WT-FLAG (mouse, UniProt Q80WQ6 1-827); assay: FACS on MEF-DKO-miR2-FL-WT-FLAG cells
T1 construct: on MEF-DKO cells
T1 sequence: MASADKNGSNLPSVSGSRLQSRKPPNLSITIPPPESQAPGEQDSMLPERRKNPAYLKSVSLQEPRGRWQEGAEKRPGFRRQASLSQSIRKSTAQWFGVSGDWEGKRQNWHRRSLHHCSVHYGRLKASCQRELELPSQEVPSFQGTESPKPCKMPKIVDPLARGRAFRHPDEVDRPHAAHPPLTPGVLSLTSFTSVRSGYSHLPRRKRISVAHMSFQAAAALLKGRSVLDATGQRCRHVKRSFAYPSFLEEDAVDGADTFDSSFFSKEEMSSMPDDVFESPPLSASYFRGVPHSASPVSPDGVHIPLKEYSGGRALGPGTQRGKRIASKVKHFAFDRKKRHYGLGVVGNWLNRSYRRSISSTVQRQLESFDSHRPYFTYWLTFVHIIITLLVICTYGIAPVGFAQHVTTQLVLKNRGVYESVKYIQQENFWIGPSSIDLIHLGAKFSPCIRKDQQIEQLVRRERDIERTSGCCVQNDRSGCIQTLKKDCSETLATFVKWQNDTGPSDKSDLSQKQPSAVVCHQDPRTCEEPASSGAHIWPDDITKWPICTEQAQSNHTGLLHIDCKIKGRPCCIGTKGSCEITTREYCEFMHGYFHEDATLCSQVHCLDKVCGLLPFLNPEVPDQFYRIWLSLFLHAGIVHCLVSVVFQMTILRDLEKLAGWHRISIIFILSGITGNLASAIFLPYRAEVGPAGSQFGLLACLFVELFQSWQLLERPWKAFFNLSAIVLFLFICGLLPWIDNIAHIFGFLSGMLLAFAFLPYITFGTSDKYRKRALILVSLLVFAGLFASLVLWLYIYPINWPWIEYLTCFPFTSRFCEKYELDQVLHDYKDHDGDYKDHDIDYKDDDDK

hiR1-FL-WT-T7 = target: T2, hiR1-FL-WT-T7 (human, UniProt Q96CC6 1-855); assay: FACS, MEF-DKO-hiR1-FL-WT-T7 cells
T2 construct: on MEF-DKO cells
T2 sequence: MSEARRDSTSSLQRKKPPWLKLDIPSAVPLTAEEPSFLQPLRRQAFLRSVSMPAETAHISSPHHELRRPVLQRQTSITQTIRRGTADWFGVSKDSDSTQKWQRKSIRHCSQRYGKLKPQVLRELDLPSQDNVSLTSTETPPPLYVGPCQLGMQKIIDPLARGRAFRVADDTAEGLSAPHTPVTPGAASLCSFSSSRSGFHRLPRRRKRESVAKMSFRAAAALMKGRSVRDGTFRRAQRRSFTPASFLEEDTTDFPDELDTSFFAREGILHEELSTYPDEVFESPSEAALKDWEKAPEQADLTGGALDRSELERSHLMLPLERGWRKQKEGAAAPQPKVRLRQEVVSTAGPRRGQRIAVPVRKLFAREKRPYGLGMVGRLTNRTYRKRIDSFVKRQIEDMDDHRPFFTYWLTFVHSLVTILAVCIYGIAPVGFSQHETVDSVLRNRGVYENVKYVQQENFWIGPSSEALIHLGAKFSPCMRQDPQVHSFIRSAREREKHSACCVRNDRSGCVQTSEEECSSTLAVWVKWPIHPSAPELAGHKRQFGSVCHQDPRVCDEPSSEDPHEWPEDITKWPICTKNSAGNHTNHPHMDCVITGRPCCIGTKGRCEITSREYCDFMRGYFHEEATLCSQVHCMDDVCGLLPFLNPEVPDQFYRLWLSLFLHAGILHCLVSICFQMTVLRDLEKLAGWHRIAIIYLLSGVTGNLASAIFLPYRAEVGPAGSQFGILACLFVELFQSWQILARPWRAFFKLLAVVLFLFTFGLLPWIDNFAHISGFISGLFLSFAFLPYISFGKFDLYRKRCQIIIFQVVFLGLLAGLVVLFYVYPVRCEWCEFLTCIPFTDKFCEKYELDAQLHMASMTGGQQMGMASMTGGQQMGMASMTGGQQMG

miR2-FL-WT-T7 = target: T3, miR2-FL-WT-T7 (mouse, UniProt Q80WQ6 1-827); assay: FACS on MEF-DKO-miR2-FL-WT-T7 cells
T3 construct: on MEF-DKO cells
T3 sequence: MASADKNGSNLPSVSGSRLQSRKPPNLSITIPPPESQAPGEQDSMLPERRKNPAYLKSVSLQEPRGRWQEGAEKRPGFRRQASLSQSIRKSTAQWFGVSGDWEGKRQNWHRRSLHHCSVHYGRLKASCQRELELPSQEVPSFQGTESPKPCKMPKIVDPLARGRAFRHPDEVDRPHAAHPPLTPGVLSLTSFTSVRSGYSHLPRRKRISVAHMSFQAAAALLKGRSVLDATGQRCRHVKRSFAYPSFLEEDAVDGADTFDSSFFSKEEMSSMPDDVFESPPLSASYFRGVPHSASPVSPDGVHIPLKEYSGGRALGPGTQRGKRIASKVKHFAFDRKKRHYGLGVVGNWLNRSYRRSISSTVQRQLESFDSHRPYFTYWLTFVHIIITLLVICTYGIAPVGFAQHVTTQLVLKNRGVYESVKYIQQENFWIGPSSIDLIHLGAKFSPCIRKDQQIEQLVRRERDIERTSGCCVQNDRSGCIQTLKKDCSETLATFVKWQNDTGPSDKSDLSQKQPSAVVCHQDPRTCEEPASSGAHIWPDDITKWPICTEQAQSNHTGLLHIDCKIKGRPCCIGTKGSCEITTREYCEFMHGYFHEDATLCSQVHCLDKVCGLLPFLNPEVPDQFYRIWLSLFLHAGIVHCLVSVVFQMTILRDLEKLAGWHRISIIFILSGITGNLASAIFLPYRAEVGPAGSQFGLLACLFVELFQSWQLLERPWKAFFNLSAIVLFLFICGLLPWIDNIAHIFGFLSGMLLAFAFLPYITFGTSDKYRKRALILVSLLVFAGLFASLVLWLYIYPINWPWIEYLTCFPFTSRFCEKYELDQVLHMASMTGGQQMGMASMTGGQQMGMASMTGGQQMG

B1: antibody 3 (antibody, V domains shown)
VH: QVTLKESGPGILQPSQTLSLTCSFSGFSLTTFAMGIGWVRQPSGKGLEWLAHIWWDGEKYNNPVLKSRLTISKDTSKNQVFLRIANVDTPDTATYYCARISSIYYIIDNWGQGTSVTVSS
VL: DIVLTQSPATLSVTPGHSVSLSCRASQSISNNLHWYQKKSHESPRLLIKYVSQSISGIPSRFSGSGSGTDFTLSINSVETEDFGMYFCQQSYNWPLTFGAGTKLELK
notes: mouse IgG, kappa light chain; also called clone #3; purified antibody 3
Does B1 bind (miR2-FL-WT-FLAG)?
Result: no binding (tested: 3 µg/ml)

B2: antibody 48 (antibody, V domains shown)
VH: QVQLQQSGTELVRPGTSVKVSCKASGYAFTNYLIEWVKQRPGQGLEWIGVINPGSGFTKYNEKFKGKATLTADKSSSTVYMHLSSLTSEDSAVYFCARGLYRAMDYWGQGTSVTVSS
VL: DIQMTQSPASQSASLGESVTITCLASQTIATWLAWYQQKPGKSPQLLIYGATTLADGVPSRFSGGGSGTKFSFKISSLQAEDFVSYYCQQLYSTPYTFGGGTKLEIK
notes: mouse IgG, kappa light chain; also called clone #48; purified antibody 48
Does B2 bind (hiR1-FL-WT-T7)?
Result: no binding (tested: 3 µg/ml)

B3: antibody 50 (antibody, V domains shown)
VH: QVQLQQSGAELVRPGASVKVSCKASGYAFSNYLIEWVKQRPGQGLEWIGVINPGSGFTKYNEKFKGKATLTADKSSSTAYMQLSSLTSEDSAVYFCARGLYRAMDYWGQGTSVTVSS
VL: DIQMTQSPASQSASLGESVTITCLASQTIGTWLAWYQQKPGKSPQLLIYAAASLADGVPSRFSGGGSGTKFSFKISSLQAEDFVNYYCQQIYSTPYTFGGGTKLEIK
notes: mouse IgG, kappa light chain; also called clone #50; purified antibody 50
Does B3 bind (miR2-FL-WT-T7)?
Result: no binding (tested: 3 µg/ml)
